This is an account of results in article PMC3043148 (Biochemistry, 2011).

B1: human adenylosuccinate lyase (ASL), wild type, His-tag (enzyme)
chain: MAAGGDHGSPDSYRSPLASRYASPEMCFVFSDRYKFRTWRQLWLWLAEAEQTLGLPITDEQIQEMKSNLENIDFKMAAEEEKRLRHDVMAHVHTFGHCCPKAAGIIHLGATSCYVGDNTDLIILRNALDLLLPKLARVISRLADFAKERASLPTLGFTHFQPAQLTTVGKRCCLWIQDLCMDLQNLKRVRDDLRFRGVKGTTGTQASFLQLFEGDDHKVEQLDKMVTEKAGFKRAFIITGQTYTRKVDIEVLSVLASLGASVHKICTDIRLLANLKEMEEPFEKQQIGSSAMPYKRNPMRSERCCSLARHLMTLVMDPLQTASVQWFERTLDDSANRRICLAEAFLTADTILNTLQNISEGLVVYPKVIERRIRQELPFMATENIIMAMVKAGGSRQDCHEKIRVLSQQAASVVKQEGGDNDLIERIQVDAYFSPIHSQLDHLLDPSSFTGRASQQVQRFLEEEVYPLLKPYESVMKVKAE
B2: human adenylosuccinate lyase (ASL) R396H, His-tag (enzyme)
chain: B1 chain with R396H
B3: human adenylosuccinate lyase (ASL) R194C, His-tag (enzyme)
chain: B1 chain with R194C
B4: human adenylosuccinate lyase (ASL), wild type, non-His-tag (enzyme)
chain: B1 chain
B5: human adenylosuccinate lyase (ASL) L311V, His-tag (enzyme)
chain: B1 chain with L311V
B6: human adenylosuccinate lyase (ASL) R396C, His-tag (enzyme)
chain: B1 chain with R396C
B7: human adenylosuccinate lyase (ASL) R396C, non-His-tag (enzyme)
chain: B1 chain with R396C
B8: human adenylosuccinate lyase (ASL) R396H, non-His-tag (enzyme)
chain: B1 chain with R396H

Series [1] deals with the molecule itself. Put plainly: AUC.
Series [2] concerns the molecule itself. Put plainly: AUC. The source holds these as a separate data set.
For series [3], the target named is B1. The series is described as follows: AUC.
Series [4] deals with the molecule itself. The series is described as follows: AUC. This is another data set of the same source.
Series [5] has as its target B1. The series is described as follows: in vitro subunit hybridisation with separation on Ni-NTA.
Series [6] deals with B3. The series is described as follows: AUC.
Series [7] deals with B3. Put plainly: in vitro subunit hybridisation with separation on Ni-NTA.
For series [8], the target named is B1. The series is described as follows: AUC. The source holds these as a separate data set.
The target of series [9] is B3. Put plainly: AUC. The source holds these as a separate data set.
Series [10] concerns the molecule itself. The series is described as follows: AUC. This is another data set of the same source.
The target in series [11] is B5. Put plainly: AUC.
For series [12], the target named is B5. Put plainly: in vitro subunit hybridisation with separation on Ni-NTA.
The target of series [13] is B5. Put plainly: AUC. The source holds these as a separate data set.

Numbering of substitutions follows the chain as printed. Names may count otherwise. Like-named read-outs stand apart in the source and are kept apart here.

With B1, the stoichiometry N (in general, the number of molecules, sites or subunits per partner or assembly) in [1] was 4. The “percent tetramer (M-Tet model)” value in [2] is 77%.
B2: the “stoichiometry N” value in series [1] came out at 4.
For the molecule B3, the “stoichiometry N” value in series [1] came to 4. In addition, the “percent tetramer (M-Tet model)” value in series [2] turned out to be 73%.
With B4, in series [3], the “percent tetramer (M-Tet model), pool 2” value turned out to be 73% and the “percent tetramer (M-Tet model), pool 3” value is 75%. Besides, the “percent tetramer (M-Tet model), pool 1” value in series [4] was found to be 68%. Besides, in series [5], the “subunit ratio (Non-His-tag: His-tag) by SDS-PAGE, pool 2” value is 1.3 non-His-tag per His-tag subunit and the “subunit ratio (Non-His-tag: His-tag) by SDS-PAGE, pool 3” value is 3.7 His-tag per non-His-tag subunit.
Consider B5, for which the “stoichiometry N” value in [1] was 4. Moreover, the “percent tetramer (M-Tet model)” value in series [2] was determined as 68%.
The corresponding values for B6 are 4 and 78%.
In the case of B7, the “percent tetramer (M-Tet model), pool 2” value worked out at 72% in [3] and 78% in series [6]. Further, the results for the “percent tetramer (M-Tet model), pool 3” value in series [3] and in [6] were 70% and 80%, respectively. The “subunit ratio (Non-His-tag: His-tag) by SDS-PAGE, pool 2” value in [5] and in series [7] was 1.2 non-His-tag per His-tag subunit in each case. For the same molecule, the results for the “subunit ratio (Non-His-tag: His-tag) by SDS-PAGE, pool 3” value in [5] and in series [7] were 2.3 His-tag per non-His-tag subunit and 3.2 His-tag per non-His-tag subunit, respectively. Also, the “stoichiometry N” value in [8], in [9] and in series [10] was 4 throughout.
Regarding B8, the figures for the “percent tetramer (M-Tet model), pool 2” value in [3] and in series [11] were 73% and 74%, respectively. For the same molecule, the “percent tetramer (M-Tet model), pool 3” value is 72% in series [3] and 74% in [11]. Also, the “subunit ratio (Non-His-tag: His-tag) by SDS-PAGE, pool 2” value was 1.1 non-His-tag per His-tag subunit in series [5] and 1.8 non-His-tag per His-tag subunit in series [12]. Moreover, the “subunit ratio (Non-His-tag: His-tag) by SDS-PAGE, pool 3” value in [5] is 1.6 His-tag per non-His-tag subunit; in series [12] it was 1 non-His-tag per His-tag subunit. Moreover, the “stoichiometry N” value in series [8], in series [13] and in series [10] was 4 in each case.
